US20250108100A1, “C-TERMINAL FRAGMENT OF APOLIPOPROTEIN E AND APPLICATION THEREOF IN INHIBITING y-SECRETASE ACTIVITY” (SYNPHATEC (SHANGHAI) BIOPHARMACEUTICAL TECHNOLOGY CO., LTD., priority 2022, published 2025)
Entries after “also recorded” stand apart in the source; their conditions may differ.

System: 5×FAD mice
Test: Amyloid plaques in brain of 5×FAD mice after AAV neuronal expression
Format: in vivo, mouse
Experimental: 0-7 months old C57 wild-type mice and AD model mice (5×FAD mice [Tg6799], mice expressing APP and PS1 comprising pathogenic mutations. The expressed APP comprises three mutations: K670N/M671L, I716V, V717I; and PS1 comprises two mutations: M146L, L286V). The mice were given sufficient food and water, and were reared at room temperature with a 12 h/12 h light-dark cycle, and the feeding environment reached the SPF (Specific Pathogen Free) standard.
• a) The brain was taken by perfusion. The mice were perfused at the heart, the blood was washed out with 20 ml PBS, and then the mice were perfused with 20 ml 4% PFA. • b) Fixation and dehydration. The mice were fixed with 4% PFA at 4° C. for 24 hours, and then dehydrated with 30% sucrose at 4° C. • c) Mouse brain slices. After 24 hours of dehydration, the mice brain was cut into slices at a thickness of 40 μm, stored in frozen buffer solution or used for subsequent immunohistochemistry. • d) THS staining. The mouse brain slices were washed three times with ddH2O, 5 minutes each; soaked in 1% THS aqueous solution for 10 minutes; washed twice with 80% ethanol, each time for 3 minutes; washed once with 95% ethanol for 3 minutes. Immunohistochemistry was performed subsequently. If THS staining is not performed, the following immunohistochemistry was performed directly. • e) Immunohistochemistry. The mouse brain slices were washed three times with 1×PBS for 10 minutes each time; the cell membrane was permeated using 0.1% Triton-X100; the brain slices were blocked by using 5% donkey or goat serum; then the primary antibody was incubated at 4° C., shaken overnight (12-16 h); washed three times with 1×PBS for 10 minutes each time; the secondary antibody was incubated, shaken at room temperature for 1-2 h; washed three times with 1×PBS for 10 minutes each time. • f) Patching and sealing. • g) Imaging, 24 hours post sealing. • h) Images were processed and signal density was analyzed by Image J.
Adeno-associated virus AAV-CT (AAV2/9-hSyn-ApoE CT) and AAV-GFP (AAV2/9-hSyn-EGFP-WPRE-pA) expressed in neurons were purchased from Tertu Biotechnology Company.
1 μl of the adeno-associated virus prepared above was injected into the cerebral cortex (x, y, z, +/−1.6, 0, −1) and hippocampus (x, y, z, +/−1.5, −2, −1.5) of 1-month-old mice by using a stereotaxic injection device.
Human APP and PS1 with five fAD mutations are expressed in neurons of 5×FAD mice: K670N/M671L+I716V+V717I mutations in APP and M146L+L286V mutations in PS1 (Oakley et al., 2006). All mice were housed under a 12 h light-dark cycle (light from 8 am to 8 pm) with ad libitum access to food and water. All mouse procedures were performed in accordance with the Guide for the Care and Use of Laboratory Animals of the Chinese Academy of Sciences and the National Institutes of Health.
Mice were anesthetized with isoflurane and perfused with 4% PFA. Dissected mouse brains were fixed overnight in 4% PFA and cryoprotected overnight in 30% sucrose. A cryostat (Leica, CM3050S) was used to obtain frozen brain slices ([…]) from fixed and cryoprotected mouse brains. Floating slices were washed 3 times with ddH2O and then incubated with 1% THS (SIGMA) in water for 5 minutes at room temperature. Next, the slices were washed twice with 80% ethanol and once with 95% ethanol for 3 minutes each. The samples were washed with ddH2O and 3 times with 1×PBS before IHC.
After being deeply anesthetized with isoflurane, mice (5 weeks old) were placed in a stereotaxic apparatus (RWD Instruments). The zero point (x, y, z, 0, 0, 0) is Bregma. Lentivirus (lentivirus-GFP, lentivirus-ApoE and lentivirus-ApoE-IRES-GFP) and AAV (AAV2/9-hSyn-EGFP-WPRE-pA and AAV2/9-hSyn-ApoECT; purchased from Shanghai Taitool Bioscience Co. Ltd.) were injected into the cortex (x, y, z, +/−1.6, 0, −1) or hippocampus (x, y, z, +/−1.5, −2, −1.5), injected 1 ul on each injection site. The mice were then returned to their cages for rehabilitation after surgery.

B1: ApoE CT: C-terminal fragment of ApoE, positions 216-299 of SEQ ID NO: 12; SEQ ID NO: 33 (protein)
chain: ARMEEMGSRTRDRLDEVKEQVAEVRAKLEEQAQQIRLQAEAFQARLKSWFEPLVEDMQRQWAGLVEKVQAAVGTSAAPVPSDNH
- average plaque size (AAV at 4 weeks, after 10 weeks, subiculum, vs GFP): significantly reduced
- average area of each amyloid plaque (AAV at 4 weeks, six months expression, subiculum, vs GFP): smaller
- percentage of total amyloid plaque area (after 10 weeks, subiculum): significantly reduced
- plaque density (after 10 weeks, subiculum): significantly reduced
- density of amyloid plaques (six months expression): decreases; also recorded: lower
- proportion of total area of amyloid plaques (six months expression): smaller proportion
- fluorescence intensity of amyloid plaques (six months expression, THS): weaker
